Test results taken from US20200121803A1 (published 2020).
Residue numbers refer to the chain shown, from its start.

T1: human CD98, endogenously expressed on Molt-4 human acute lymphoblastic leukemia cells (human)
T1 chain: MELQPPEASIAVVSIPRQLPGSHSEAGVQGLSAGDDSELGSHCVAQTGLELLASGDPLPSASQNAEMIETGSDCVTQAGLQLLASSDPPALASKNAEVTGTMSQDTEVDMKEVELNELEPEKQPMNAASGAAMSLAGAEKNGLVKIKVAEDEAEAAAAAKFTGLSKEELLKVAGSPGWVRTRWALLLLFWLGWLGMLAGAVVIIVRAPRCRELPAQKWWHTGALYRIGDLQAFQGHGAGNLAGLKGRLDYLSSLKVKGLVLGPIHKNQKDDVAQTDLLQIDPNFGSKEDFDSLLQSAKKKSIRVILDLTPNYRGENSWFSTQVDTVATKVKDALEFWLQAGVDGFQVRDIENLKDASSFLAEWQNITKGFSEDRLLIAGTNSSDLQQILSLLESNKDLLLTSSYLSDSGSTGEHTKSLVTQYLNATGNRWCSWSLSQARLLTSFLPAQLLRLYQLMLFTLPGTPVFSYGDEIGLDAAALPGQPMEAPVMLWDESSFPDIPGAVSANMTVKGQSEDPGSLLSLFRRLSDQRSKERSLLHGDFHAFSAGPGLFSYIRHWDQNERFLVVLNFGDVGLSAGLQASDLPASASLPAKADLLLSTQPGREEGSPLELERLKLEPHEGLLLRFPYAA

T2: Human CD98, endogenous on HCC38, Molt-4 and Jurkat human cancer cells (human)
T2 chain: T1 chain

B1: CD98 (CL-huAb110)-ZZ (antibody, human IgG1, kappa, L234A L235A, V domains shown)
VH: EVQLVQSGAEVKKPGASVKVSCKASGFTFSDYTMAWVRQAPGQGLEWVATIIYDARGTYYRDAVKGRFTITRDNSTSTLYLELSSLRSEDTAVYYCARQSDDTYYYWGYFDYWGQGTMVTVSS
VL: DIVMTQTPLSLPVTPGEPASINCKSSQSLLFSGNQKNYLAWYLQKPGQSPQLLIYWASTRQSGVPDRFSGSGSGTDFTLKISRVEAEDVGIYYCQQYYSSPYTFGQGTKLEIKR
modifications: synthon ZZ on reduced cysteine (see heavy chain); Bcl-xL inhibitor synthon ZZ on cysteines freed by TCEP reduction (Method G); DAR 1.0 by MS for the whole ADC
B2: CD98 (CL-huAb104)-XW (antibody, human IgG1, kappa, L234A L235A, V domains shown)
VH: EVQLVESGGGLVQPGGSLRLSCATSGFTFIDYYMSWVRQAPGKGLEWLGFIRNKAYGYTTEYSASVKGRFTISRDNSKSILYLQMNSLKTEDTAVYYCTRDRPAWFVYWGQGTLVTVSS
VL: B1 VL with N22S, F31Y, G33S, Q61E, I91V, S100Y, Q106G, L110V
modifications: synthon XW on reduced cysteine (see heavy chain); Bcl-xL inhibitor synthon XW on cysteines freed by TCEP reduction (Method G); DAR 3.1 by MS for the whole ADC
B3: CD98 (CL-huAb102)-SE (antibody, human IgG1, kappa, L234A L235A, V domains shown)
VH: B2 VH with Y56N, G57R
VL: B1 VL with N22S, F31Y, G33S, Q61E, I91V, S100Y, Q106G, L110V
modifications: synthon SE on reduced cysteine (see heavy chain); Bcl-xL inhibitor synthon SE on cysteines freed by TCEP reduction (Method A); DAR 2.2 by MS for the whole ADC
B4: CD98 (CL-huAb110)-XW (antibody, human IgG1, kappa, L234A L235A, V domains shown)
VH: B1 VH
VL: B1 VL
modifications: synthon XW on reduced cysteine (see heavy chain); Bcl-xL inhibitor synthon XW on cysteines freed by TCEP reduction (Method G); DAR 3.2 by MS for the whole ADC
B5: CD98 (CL-huAb102)-XW (antibody, human IgG1, kappa, L234A L235A, V domains shown)
VH: B2 VH with Y56N, G57R
VL: B1 VL with N22S, F31Y, G33S, Q61E, I91V, S100Y, Q106G, L110V
modifications: synthon XW on reduced cysteine (see heavy chain); Bcl-xL inhibitor synthon XW on cysteines freed by TCEP reduction (Method G); DAR 2.8 by MS for the whole ADC
B6: CD98 (CL-huAb104)-SE (antibody, human IgG1, kappa, L234A L235A, V domains shown)
VH: B2 VH
VL: B1 VL with N22S, F31Y, G33S, Q61E, I91V, S100Y, Q106G, L110V
modifications: synthon SE on reduced cysteine (see heavy chain); Bcl-xL inhibitor synthon SE on cysteines freed by TCEP reduction (Method A); DAR 2.4 by MS for the whole ADC
B7: CD98 (CL-huAb108)-XW (antibody, human IgG1, kappa, L234A L235A, V domains shown)
VH: B1 VH with D54S, A55G
VL: B1 VL with S99D, S100V
modifications: synthon XW on reduced cysteine (see heavy chain); Bcl-xL inhibitor synthon XW on cysteines freed by TCEP reduction (Method G); DAR 3.5 by MS for the whole ADC
B8: Ab5-CZ (Ab5 conjugated to Bcl-xL inhibitor synthon CZ) (antibody, V domains shown)
VH: EVKLVESGGGLVQPGGSLRLSCATSGFTFTDYYMTWVRQPPGKALEWLGFIRNKANGYTTEYSASVKGRFTISRDNSLSILYLQMNTLRAEDSATYYCARASYVNSEGWFAYWGQGTLVTVSA
VL: DIVMSQSPSSLAVSVGEKVTMSCKSSQSLLYSSNQKNYLAWYQQKLGQSPKLLIYWASTRESGVPDRFTGSGSGTDFTLTISSVKAEDLAVYYCQHYYSYPRTFGGGTKLEIK
B9: Ab2-CZ (Ab2 conjugated to Bcl-xL inhibitor synthon CZ) (antibody, V domains shown)
VH: B8 VH with T28N, T35S, N76D, L78Q, V104G
VL: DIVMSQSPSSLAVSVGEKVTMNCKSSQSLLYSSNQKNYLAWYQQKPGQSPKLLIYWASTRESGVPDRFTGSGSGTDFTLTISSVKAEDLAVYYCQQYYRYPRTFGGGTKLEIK
B10: Ab3-CZ (Ab3 conjugated to Bcl-xL inhibitor synthon CZ) (antibody, V domains shown)
VH: EVKLVESGGGLVQPGNSLRLSCATSGFTFIDYYMSWVRQSPGKALEWLGFIRNKANGYTTEYSASVKGRFTISRDNSQSILYLQMDTLRAEDSATYYCTRDRPAWFVYWGQGTLVTVSA
VL: B8 VL with L46P, I81F, K85R, H96Q, R102Y
B11: Ab6-CZ (Ab6 conjugated to Bcl-xL inhibitor synthon CZ) (antibody, V domains shown)
VH: QVQLKESGPGLAQPSQTLSLTCTVSGFSLSTYGVIWLRQPPGKGLEWMGVIWTNGNTNYNSTLKSRLSISRDTSESQVYLQMNSLQTEDTATYYCARHYYDGAYYYGYFDYWGQGVMVTVSS
VL: DIVMTQTPSSQAVSAGEKVTMSCKSSQSLLYSENKKNYLAWYQQKPGQSPKLLIYWASTRESGVPDRFIGSGSGTDFTLTISSVQAEDLAVYYCQQYYYFPYTFGAGTKLELK
B12: Ab7-CZ (Ab7 conjugated to Bcl-xL inhibitor synthon CZ) (antibody, V domains shown)
VH: B11 VH with A12V, L37V, T53A, E75K, Q81K, A103T
VL: B11 VL with S22N, A106P
B13: Ab9-CZ (Ab9 conjugated to Bcl-xL inhibitor synthon CZ) (antibody, V domains shown)
VH: B11 VH with A12V, T23A, T31N, L37V, G49A, E75K, Q81K, A103T
VL: B11 VL with S32T, I69M, T103M
B14: Ab13-CZ (Ab13 conjugated to Bcl-xL inhibitor synthon CZ) (antibody, V domains shown)
VH: B11 VH with A12V, T31S, L37V, V50I, T53A, T62A, E75K, Q81K, A103T, Y104H
VL: B11 VL with I2T, N37K, Y99N
B15: Ab14-CZ (Ab14 conjugated to Bcl-xL inhibitor synthon CZ) (antibody, V domains shown)
VH: EVKLQQSGDELVRPGASVKISCKASGYTFTSYSMHWVKERPGQGLEWIGAIFPIIGTTEYNQKFKGKATLTADKSSNTANMELSRLTSEDSAVYYCARVYLSYFDYWGQGVMVTVSS
VL: DIQMTQSPSFLSASVGDRVTINCKASQNINKYLDWYQRKHGEAPKLLIYNTNNLQTGIPSRFSGSGSGTDYTLTISSLQPEDVATYFCLQHSSRYTFGAGTKLELK
B16: Ab8-CZ (Ab8 conjugated to Bcl-xL inhibitor synthon CZ) (antibody, V domains shown)
VH: EVQLVESGGGLVQPGRSLKLSCAASGFTFSDYAMAWVRQAPKKGLEWVASIIYDGRGTYYRDSVKGRFTISRDNAKSTLYLQMDSLRSEDTATYYCARQGDGTYYYWGYFDYWGQGVMVTVSS
VL: DIVMTQSPSSLAVSAGETVTINCKSSQSLLSSGNQKNYLAWYQQKPGQSPKLLIYWASTRQSGVPDRFIGSGSGTDFTLTINSVQAEDLAIYYCQQYYDTPYTFGAGTKLELK
B17: Ab11-CZ (Ab11 conjugated to Bcl-xL inhibitor synthon CZ) (antibody, V domains shown)
VH: B16 VH with S50G
VL: B16 VL with K24R, N82S
B18: Ab15-CZ (Ab15 conjugated to Bcl-xL inhibitor synthon CZ) (antibody, V domains shown)
VH: B16 VH with A33T, S50T, G100S
VL: B16 VL with S31F, N82R, T100S
B19: Ab12-CZ (Ab12 conjugated to Bcl-xL inhibitor synthon CZ) (antibody, V domains shown)
VH: B16 VH with Y109S
VL: B16 VL with N82S, Y93H
B20: Ab10-CZ (Ab10 conjugated to Bcl-xL inhibitor synthon CZ) (antibody, V domains shown)
VH: B16 VH with G44S, S50T, Y60C, Y105H
VL: B16 VL with N82S, L110V, E111D

Target: T1, human CD98, endogenously expressed on …
Assay: cell-based or functional assay

Row | Molt4 IC50 (nM), 50% inhibition of cell proliferation, 72 h, ATPlite [nM] | Binder | % Cell Viability at 50 nM (Molt-4) [%]
1 | 0.252 | B1 | 4.3
2 | 0.102 | B2 | 31.1
3 | 0.107 | B3 | 19.7
4 | 0.308 | B4 | 19.6
5 | 0.074 | B5 | 32
6 | 0.149 | B6 | 17.1
7 | 0.281 | B7 | 20.9

Target: T2, Human CD98, endogenous on HCC38, Molt-4 …
Assay: cell-based or functional assay

Row | ADC potency, IC50 (nM), HCC38 growth inhibition [nM] | ADC potency, IC50 (nM), Jurkat growth inhibition [nM] | ADC potency, IC50 (nM), Molt-4 growth inhibition [nM] | Binder
8 | 0.728 | 0.137 | 0.022 | B8
9 | 0.791 | 0.065 | 0.05 | B9
10 | 0.561 | 0.071 | 0.031 | B10
11 | 0.438 | 0.086 | 0.057 | B11
12 | 1.15 | 0.134 | 0.079 | B12
13 | 1.09 | 0.092 | 0.03 | B13
14 | 0.787 | 0.149 | 0.38 | B14
15 | 0.798 | 0.063 | 0.025 | B15
16 | 0.963 | 0.121 | 0.079 | B16
17 | 1.14 | 0.311 | 0.279 | B17
18 | 1.06 | 0.076 | 0.071 | B18
19 | 0.685 | 0.094 | 0.087 | B19
20 | 1.16 | 0.148 | 0.047 | B20
